In PMC3399765 (2011):

Target: SMB20 peptide (Homo sapiens, UniProt P14678)
Experiment: ITC

B1: FBP21 WW domains (protein)
chain: DPSKGRWVEGITSEGYHYYYDLISGASQWEKPEGFQGDLKKTAVKTVWVEGLSEDGFTYYYNTETGESRWEKPDD
Kd: 16.4 µM
